Results: patent US20110300138A1 (published 2011)

Columns and labels:
Assay in all cases: cell-based or functional assay
[1] = molecular target: TSHR with Tyr185 mutated to Ala (human) (UniProt P16473)
[2] = molecular target: TSHR with Arg80 mutated to Ala expressed in CHO cells (human) (UniProt P16473)
[3] = molecular target: TSHR with Gln235 mutated to Ala expressed in CHO cells (human) (UniProt P16473)
[4] = molecular target: TSHR with Arg109 mutated to Ala, expressed in CHO cells (human) (UniProt P16473)
[5] = molecular target: wild type human TSHR (full length) expressed in CHO cells (human) (UniProt P16473)
[6] = molecular target: wild type TSHR (human TSH receptor, full length) expressed in CHO cells (human) (UniProt P16473)
[7] = molecular target: TSHR with Asp151 mutated to Ala, expressed in CHO cells (human) (UniProt P16473)

% inhibition of TSH stimulation, TSH (2) run at the end of assay, mutated TSHR [1]: 22%
Cyclic AMP produced (pmol/mL), TSH 3 ng/mL, mutated TSHR [1]: 52.5 pmol/mL
Cyclic AMP produced (pmol/mL), TSH (2) 3 ng/mL run at the end of assay, mutated TSHR [1]: 41 pmol/mL
Mutated/wild type (%) of cyclic AMP produced; TSH 3 ng/mL [1]: 52%
Mutated/wild type (%) of cyclic AMP produced; TSH (2) 3 ng/mL, run at the end of assay [1]: 31.2%
% inhibition of TSH stimulation; TSH (2) [2]: 16%
Cyclic AMP produced; TSH 3 ng/mL [2]: 105 pmol/mL
Cyclic AMP produced; TSH (2) [2]: 88.2 pmol/mL
Mutated/wild type (%) of cyclic AMP produced; TSH 3 ng/mL [2]: 124%
Mutated/wild type (%) of cyclic AMP produced; TSH (2) [2]: 94%
Cyclic AMP produced, TSH 0.01 ng/mL, Experiment 1 [3]: 1.75 pmol/mL
Cyclic AMP produced, TSH 0.01 ng/mL, Experiment 2 [3]: 3.42 pmol/mL
Cyclic AMP produced, TSH 0.03 ng/mL, Experiment 1 [3]: 2.89 pmol/mL
Cyclic AMP produced, TSH 0.03 ng/mL, Experiment 2 [3]: 4.55 pmol/mL
Cyclic AMP produced, TSH 0.1 ng/mL, Experiment 1 [3]: 5.97 pmol/mL
Cyclic AMP produced, TSH 0.1 ng/mL, Experiment 2 [3]: 7.77 pmol/mL
Cyclic AMP produced, TSH 0.3 ng/mL, Experiment 1 [3]: 17.6 pmol/mL
Cyclic AMP produced, TSH 0.3 ng/mL, Experiment 2 [3]: 17.1 pmol/mL
Cyclic AMP produced, TSH 1 ng/mL, Experiment 1 [3]: 44.2 pmol/mL
Cyclic AMP produced, TSH 1 ng/mL, Experiment 2 [3]: 31.7 pmol/mL
Cyclic AMP produced; TSH 3 ng/mL; Experiment 1 [3]: 46.6 pmol/mL
Cyclic AMP produced; TSH 3 ng/mL; Experiment 2 [3]: 37.1 pmol/mL
Experiment 1: % inhibition of TSH stimulation; TSH (2), run at the end of assay [3]: 13%
Experiment 1: Mutated/wild type (%) of cyclic AMP produced; TSH 3 ng/mL [3]: 70%
Experiment 1: Mutated/wild type (%) of cyclic AMP produced; TSH (2) 3 ng/mL, run at the end of assay [3]: 61%
Experiment 2: % inhibition of TSH stimulation; TSH (2), run at the end of assay [3]: 3%
Experiment 2: Mutated/wild type (%) of cyclic AMP produced; TSH 3 ng/mL [3]: 100%
Experiment 2: Mutated/wild type (%) of cyclic AMP produced; TSH (2) 3 ng/mL, run at the end of assay [3]: 71%
Mutated/Wild type (%) of cyclic AMP produced, TSH 0.01 ng/mL, Experiment 1 [3]: 161%
Mutated/Wild type (%) of cyclic AMP produced, TSH 0.01 ng/mL, Experiment 2 [3]: 177%
Mutated/Wild type (%) of cyclic AMP produced, TSH 0.03 ng/mL, Experiment 1 [3]: 125%
Mutated/Wild type (%) of cyclic AMP produced, TSH 0.03 ng/mL, Experiment 2 [3]: 165%
Mutated/Wild type (%) of cyclic AMP produced, TSH 0.1 ng/mL, Experiment 1 [3]: 91%
Mutated/Wild type (%) of cyclic AMP produced, TSH 0.1 ng/mL, Experiment 2 [3]: 107%
Mutated/Wild type (%) of cyclic AMP produced, TSH 0.3 ng/mL, Experiment 1 [3]: 67%
Mutated/Wild type (%) of cyclic AMP produced, TSH 0.3 ng/mL, Experiment 2 [3]: 68%
Mutated/Wild type (%) of cyclic AMP produced, TSH 1 ng/mL, Experiment 1 [3]: 65%
Mutated/Wild type (%) of cyclic AMP produced, TSH 1 ng/mL, Experiment 2 [3]: 62%
Mutated/wild type (%) of cyclic AMP produced; TSH 3 ng/mL; Experiment 1 [3]: 56%
Mutated/wild type (%) of cyclic AMP produced; TSH 3 ng/mL; Experiment 2 [3]: 53%
% inhibition of TSH stimulation; TSH (2) control; Experiment 1 [4]: 0%
% inhibition of TSH stimulation; TSH (2) control; Experiment 2 [4]: 6%
Cyclic AMP produced; TSH 3 ng/mL; Experiment 1 [4]: 32.9 pmol/mL
Cyclic AMP produced; TSH 3 ng/mL; Experiment 2 [4]: 53.4 pmol/mL
Cyclic AMP produced; TSH (2); Experiment 1 [4]: 33.3 pmol/mL
Cyclic AMP produced; TSH (2); Experiment 2 [4]: 50.4 pmol/mL
Mutated/wild type (%) of cyclic AMP produced; TSH 3 ng/mL; Experiment 1 [4]: 49%
Mutated/wild type (%) of cyclic AMP produced; TSH 3 ng/mL; Experiment 2 [4]: 88%
Mutated/wild type (%) of cyclic AMP produced; TSH (2); Experiment 1 [4]: 49%
Mutated/wild type (%) of cyclic AMP produced; TSH (2); Experiment 2 [4]: 74%
% inhibition of TSH stimulation, TSH (2) run at the end of assay, wild type TSHR [5]: 2%
Cyclic AMP produced (pmol/mL), TSH 0.01 ng/mL, wild type TSHR [5]: 2.03 pmol/mL
Cyclic AMP produced (pmol/mL), TSH 0.03 ng/mL, wild type TSHR [5]: 3.65 pmol/mL
Cyclic AMP produced (pmol/mL), TSH 0.1 ng/mL, wild type TSHR [5]: 9.65 pmol/mL
Cyclic AMP produced (pmol/mL), TSH 0.3 ng/mL, wild type TSHR [5]: 31.4 pmol/mL
Cyclic AMP produced (pmol/mL), TSH 1 ng/mL, wild type TSHR [5]: 61 pmol/mL
Cyclic AMP produced (pmol/mL), TSH 3 ng/mL alone, wild type TSHR [5]: 93.9 pmol/mL
Cyclic AMP produced (pmol/mL), TSH 3 ng/mL, wild type TSHR [5]: 82.6 pmol/mL
Cyclic AMP produced (pmol/mL), TSH (2) 3 ng/mL run at the end of assay, wild type TSHR [5]: 92.2 pmol/mL
Cyclic AMP produced, TSH 0.01 ng/mL [5]: 4 pmol/mL
Cyclic AMP produced, TSH 0.01 ng/mL, Experiment 1 [5]: 1.09 pmol/mL
Cyclic AMP produced, TSH 0.01 ng/mL, Experiment 2 [5]: 1.93 pmol/mL
Cyclic AMP produced, TSH 0.03 ng/mL [5]: 6.66 pmol/mL
Cyclic AMP produced, TSH 0.03 ng/mL, Experiment 1 [5]: 2.31 pmol/mL
Cyclic AMP produced, TSH 0.03 ng/mL, Experiment 2 [5]: 2.75 pmol/mL
Cyclic AMP produced, TSH 0.1 ng/mL [5]: 19.7 pmol/mL
Cyclic AMP produced, TSH 0.1 ng/mL, Experiment 1 [5]: 6.54 pmol/mL
Cyclic AMP produced, TSH 0.1 ng/mL, Experiment 2 [5]: 7.25 pmol/mL
Cyclic AMP produced, TSH 0.3 ng/mL [5]: 45 pmol/mL
Cyclic AMP produced, TSH 0.3 ng/mL, Experiment 1 [5]: 26.5 pmol/mL
Cyclic AMP produced, TSH 0.3 ng/mL, Experiment 2 [5]: 25.3 pmol/mL
Cyclic AMP produced, TSH 1 ng/mL [5]: 75.7 pmol/mL
Cyclic AMP produced, TSH 1 ng/mL, Experiment 1 [5]: 67.7 pmol/mL
Cyclic AMP produced, TSH 1 ng/mL, Experiment 2 [5]: 51 pmol/mL
Cyclic AMP produced, TSH 3 ng/mL, Experiment 1 (mean of duplicate) [5]: 83.5 pmol/mL
Cyclic AMP produced; TSH 3 ng/mL [5]: 87.2 pmol/mL
Cyclic AMP produced; TSH 3 ng/mL; Experiment 2 [5]: 69.7 pmol/mL
% inhibition of TSH stimulation; TSH (2) control [6]: 0%
% inhibition of TSH stimulation; TSH (2) control; Experiment 1 [6]: 0.1%
% inhibition of TSH stimulation; TSH (2) control; Experiment 2 [6]: 0%
Cyclic AMP produced (pmol/mL), TSH 0.01 ng/mL, Experiment 1 [6]: 4.36 pmol/mL
Cyclic AMP produced (pmol/mL), TSH 0.01 ng/mL, Experiment 2 [6]: 2.21 pmol/mL
Cyclic AMP produced (pmol/mL), TSH 0.01 ng/mL, Experiment 3 [6]: 5.19 pmol/mL
Cyclic AMP produced (pmol/mL), TSH 0.03 ng/mL, Experiment 1 [6]: 9.19 pmol/mL
Cyclic AMP produced (pmol/mL), TSH 0.03 ng/mL, Experiment 2 [6]: 3.61 pmol/mL
Cyclic AMP produced (pmol/mL), TSH 0.03 ng/mL, Experiment 3 [6]: 9.82 pmol/mL
Cyclic AMP produced (pmol/mL), TSH 0.1 ng/mL, Experiment 1 [6]: 26.9 pmol/mL
Cyclic AMP produced (pmol/mL), TSH 0.1 ng/mL, Experiment 2 [6]: 7.86 pmol/mL
Cyclic AMP produced (pmol/mL), TSH 0.1 ng/mL, Experiment 3 (duplicate determination) [6]: 25 pmol/mL
Cyclic AMP produced (pmol/mL), TSH 0.3 ng/mL, Experiment 1 [6]: 42 pmol/mL
Cyclic AMP produced (pmol/mL), TSH 0.3 ng/mL, Experiment 2 [6]: 27.1 pmol/mL
Cyclic AMP produced (pmol/mL), TSH 0.3 ng/mL, Experiment 3 [6]: 91.7 pmol/mL
Cyclic AMP produced (pmol/mL), TSH 1 ng/mL, Experiment 1 [6]: 60.1 pmol/mL
Cyclic AMP produced (pmol/mL), TSH 1 ng/mL, Experiment 2 [6]: 54.2 pmol/mL
Cyclic AMP produced (pmol/mL), TSH 1 ng/mL, Experiment 3 [6]: 192 pmol/mL
Cyclic AMP produced (pmol/mL), TSH 3 ng/mL, Experiment 1 [6]: 61.3 pmol/mL
Cyclic AMP produced (pmol/mL), TSH 3 ng/mL, Experiment 2 [6]: 58.1 pmol/mL
Cyclic AMP produced (pmol/mL), TSH 3 ng/mL, Experiment 3 [6]: 226 pmol/mL
Cyclic AMP produced; TSH 3 ng/mL [6]: 50 pmol/mL
Cyclic AMP produced; TSH 3 ng/mL; Experiment 1 [6]: 67.7 pmol/mL
Cyclic AMP produced; TSH 3 ng/mL; Experiment 2 [6]: 60.7 pmol/mL
Cyclic AMP produced; TSH (2) [6]: 53.1 pmol/mL
Cyclic AMP produced; TSH (2); Experiment 1 [6]: 67.5 pmol/mL
Cyclic AMP produced; TSH (2); Experiment 2 [6]: 67.8 pmol/mL
% inhibition of TSH stimulation, mutated TSHR; TSH (2) (run at the end of assay) [7]: 9%
Mutated/Wild type (%) of cyclic AMP produced, TSH 0.01 ng/mL [7]: 209%
Mutated/Wild type (%) of cyclic AMP produced, TSH 0.03 ng/mL [7]: 149%
Mutated/Wild type (%) of cyclic AMP produced, TSH 0.1 ng/mL [7]: 99%
Mutated/Wild type (%) of cyclic AMP produced, TSH 0.3 ng/mL [7]: 80%
Mutated/Wild type (%) of cyclic AMP produced, TSH 1 ng/mL [7]: 66%
Substance: TSH (ligand)
